Results reported in US20230143582A1.

Target: Wnt receptors on the cell surface of the HEK293 TCF9-SEAP reporter cell line
Assay: cell-based or functional assay

- ED50 in the HEK293 TCF9-Secreted Alkaline Phosphatase (SEAP) Wnt-responsive reporter assay, lot DLGC02: 221 ng/mL
- ED50 in the HEK293 TCF9-Secreted Alkaline Phosphatase (SEAP) Wnt-responsive reporter assay, lot RSK51: 145 ng/mL
- ED50 in the HEK293 TCF9-Secreted Alkaline Phosphatase (SEAP) Wnt-responsive reporter assay, lot RSK69: 191 ng/mL
Substance: recombinant human Wnt3a protein (from UniProt P56704 19-352) (ligand)
